Drawing on publication PMC3726423, this text covers Kd, δ(Δε): decrease of the RNA CD signal and binding signal (fold decrease of CII') for six substances.

For one data set, the system named is aCBF5. As to the kind of experiment: EMSA. The following applies: EMSA: 150 mM KCl, 1.5 mM MgCl2, 0.2 mM EDTA, 20 mM HEPES pH 7.9, 65 C 10 min, 50 fmol sRNA, 200 nM proteins (Kd: 50-400 nM aCBF5); fluorescence: 300 mM NaCl …. On the technique in general: Mobility shift assays separate free from complexed probe on a gel.
The target in a further data set is aNOP10 (P. abyssi) (UniProt Q9V0E3).
The target of data set [1] is aNOP10 Y41A/Y44A (P. abyssi) (UniProt Q9V0E3).
For data set [2], the target named is aCBF5;aNOP10;L7Ae H70A/L74A/E77A (HLE) H65A;L69A;E72A (Pyrococcus abyssi;Pyrococcus abyssi) (UniProt P62008). As to the kind of experiment: EMSA. The following applies: radiolabeled substrate, excess unlabeled sRNP; EMSA: 150 mM KCl, 1.5 mM MgCl2, 0.2 mM EDTA, 20 mM HEPES pH 7.9, 65 C 10 min, 50 fmol sRNA, 200 nM proteins (Kd: 50-400 nM aCBF5); fluorescence: 300 mM NaCl ….

The target in data set [3] is aCBF5;aNOP10 Y41A/Y44A (Y);L7Ae (Pyrococcus abyssi;Pyrococcus abyssi) (UniProt P62008). As to the kind of experiment: EMSA. Particulars: radiolabeled substrate, excess unlabeled sRNP; EMSA: 150 mM KCl, 1.5 mM MgCl2, 0.2 mM EDTA, 20 mM HEPES pH 7.9, 65 C 10 min, 50 fmol sRNA, 200 nM proteins (Kd: 50-400 nM aCBF5); fluorescence: 300 mM NaCl ….

Chain of aNOP10 (P. abyssi) (Q9V0E3 whole entry): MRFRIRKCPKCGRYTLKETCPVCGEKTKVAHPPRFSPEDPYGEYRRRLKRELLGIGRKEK
Chain of aNOP10 Y41A/Y44A (P. abyssi) (Q9V0E3 whole entry Y41A/Y44A): as the sequence (Q9V0E3 whole entry) above, with Y41A, Y44A counted along it

For “GGGGAUCCCCUCCCCUCCCGCCCUCUCCGGGGAAUCGUGAACCGGGGGUUCCGGGGGAGGGGACAGU [Pab21P191 chimera]”, the dissociation constant Kd with aCBF5 is 200 nM.

In the data set on aCBF5, “GGGGAUGGGCCCGGCUCCCGCCCUCUCCGGGGAAUCGUGAACCGGGGGUUCCGGCCGGGCCUACAGU [Pab21 H/ACA sRNA]” displayed a Kd of 125 nM. On the same count and under the same terms, the result for “GGGUAAUGGGGCCCGGCUCUCACACCUCCGGGAUCAGUGACCGGAGGGCGGUCGCCGGGCCUACACCU [Pab91P121 chimera]” reads 200 nM. With “L7Ae (from UniProt P62008 1-123) (natural protein)”, the δ(Δε): decrease of the RNA CD signal at λmax on addition of L7Ae to the aCBF5-aNOP10-Pab21 complex (M^−1.cm^−1 per nt) in the data set with aNOP10 (P. abyssi) is -1.21. The same substance had a δ(Δε): decrease of the RNA CD signal at λmax on addition of wild-type L7Ae to the aCBF5-aNOP10(Y41A/Y44A)-Pab21 complex (M^−1.cm^−1 per nt) in data set [1] of -0.82. Regarding “L7Ae triple mutant H70A/L74A/E77A (from UniProt P62008 1-123) (natural protein)”, in the data set with aNOP10 (P. abyssi), the δ(Δε): decrease of the RNA CD signal at λmax on addition of L7Ae H70A/L74A/E77A to the wild-type aCBF5-aNOP10-Pab21 complex (M^−1.cm^−1 per nt) is -0.825. For the substance Pab21 guide + substrate RNA, the binding signal (fold decrease of CII') in data set [2] and in data set [3] was 2 each time.

For orientation: Kd means the free concentration of one partner at which half of the binding sites on the other are occupied at equilibrium, for simple one-to-one binding.
